Changes are numbered by the printed parent chain.

The assay addresses 重组人CALR融合蛋白 (recombinant human calreticulin fusion protein, residues 18-203, Example 1) (human, UniProt P27797 18-203). The assay is described as follows: SPR, Biacore 3000, curve fitting. (Surface plasmon resonance follows binding to a sensor surface in real time, without labels.)

Sequence of 重组人CALR融合蛋白 (recombinant human calreticulin fusion protein, residues 18-203, Example 1) (P27797 18-203): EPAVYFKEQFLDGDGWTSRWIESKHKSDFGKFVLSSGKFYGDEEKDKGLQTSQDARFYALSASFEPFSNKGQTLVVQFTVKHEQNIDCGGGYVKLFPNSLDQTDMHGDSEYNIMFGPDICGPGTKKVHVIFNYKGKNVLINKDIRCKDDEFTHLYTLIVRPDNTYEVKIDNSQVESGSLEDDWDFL

B1: 兔单克隆抗体2G2 (rabbit monoclonal antibody 2G2 against human calreticulin) (antibody, V domains shown)
VH: QEQLEESGGGLVQPEGSLTLTCTASGFSINNNYWICWVRQAPGKGLEWVGCISIADNSNTYYATWAKGRVTISKTSSTTVTLQMTSLTAADTATYFCARGPAVISFNLWGPGTLVTVSS
VL: AQVLTQTPSSTSAAVGGTVTINCQASESVYGNNRLAWYQQKPGQPPKRLIYDASTLASGVPSRFSGSGSGKQFTLTMSGVQCDDAATYYCIGHFYSGINSISFGGGTEVVVKG
notes: Recombinant rabbit IgG made in 293F cells; also called 2G2抗体; 兔抗人CALR单克隆抗体2G2
Broadly, the Kd is a measure of binding affinity in units of concentration. On to B1, for which the Kd turned out to be 4.88 nM.

B2: 兔单克隆抗体3B3 (rabbit monoclonal antibody 3B3 against human calreticulin) (antibody, V domains shown)
VH: QSLEESGGGLVQPEGSLTLTCTASGFSFSSSYWICWVRQAPGKGLEWIGCISIDDNSNTYYASWAKGRVTISKTSSTTVTLQMTSLTAADTATYFCARGPGIIFYNLWGPGTLVTVSS
VL: B1 VL with G31N, T55K, S65K, S96T, G97S, I101V, S102T
notes: Recombinant rabbit IgG made in 293F cells; also called 3B3抗体; 兔抗人CALR单克隆抗体3B3
For the molecule B2, the Kd came to 4.34 nM.
